In patent US9539338B2, “Polymer-based protein engineering methods to rationally tune enzyme activity, pH-dependence and stability” (Carnegie Mellon University, priority 2013, dated 2017) one finds Km and kcat data, which are given here for one substance.

This data set deals with T1, Suc-AAPF-pNA (Bos taurus, UniProt P00766).
T1 construct: purchased Sigma Aldrich; host or cells: bovine pancreas
Put plainly: Enzyme kinetic assay: hydrolysis of Suc-AAPF-pNA at pH 5-10 (native CT, CT-PDMAEMA conjugates). The class given is biochemical. Here is the method:
N-Succinyl-Ala-Ala-Pro-Phe p-nitroanilide (0 to 50 μL of 9.60 mM in DMSO) was added to sodium phosphate buffer (990 to 940 μL of 100 mM, pH 5-10). Native CT or conjugates solution (10 μL of 4.0 μM) was added to the substrate solution. The initial rate of hydrolysis of the peptide substrate was monitored by recording the increase in absorption at 412 nm using a UV-VIS spectrometer. The Michaelis-Menten parameters (kcat, Km and kcat/Km) were determined by non-linear curve fitting (equation for Michaelis-Menten parameters) of plots of initial rate versus substrate concentration using the Enzfitter software.

Where [1] appears, read: pH 5.0, 100 mM sodium phosphate.
Where [2] appears, read: pH 6.0, 100 mM sodium phosphate.
The mark [3] stands for this setting: pH 7.0, 100 mM sodium phosphate.
Where [4] appears, read: pH 8.0, 100 mM sodium phosphate.
Where [5] appears, read: pH 9.0, 100 mM sodium phosphate.
Setting [6] is: pH 10.0, 100 mM sodium phosphate.

For “α-Chymotrypsin (CT) from bovine pancreas (type II) [Native CT]”, the Km is, setting by setting: under setting [1], 212 µM; under setting [2], 189 µM; under setting [3], 84.1 µM; under setting [4], 55.2 µM; under setting [5], 104 µM; under setting [6], 258 µM. The kcat under setting [1] turned out to be 2.28 ± 0.36 s⁻¹; the kcat under setting [2] was 12.13 s⁻¹; the kcat under setting [3] turned out to be 21.54 s⁻¹; the catalytic constant (kcat) under setting [4] was 26.67 s⁻¹; the turnover number (kcat) under setting [5] amounted to 29.49 s⁻¹; the kcat under setting [6] came out at 27.69 s⁻¹.
